Measured values as given in patent US20230331848A1 (BIOSION, published 2023).
Numbering of substitutions follows the chain as printed. Values belong to the binder of their own block, whether it stands above or below them.

Assays:
[1] = biological target: T1, in house made human PD-1-Fc protein (human, biotin-labeled (sites not given)); test: capture ELISA: antibody captured on anti-mouse IgG F(ab')2 coated plate, biotin-labeled human PD-1-Fc detected with streptavidin-HRP; unit from the axis 'Con of mAb, nM.'
T1 construct: also called biotin-labeled human PD-1-Fc
Experimental: Briefly, 96-well micro plates were coated with 100 μl 2 μg/ml AffiniPure Goat Anti-Mouse IgG F(ab′)₂ fragment specific (Cat#:115-005-072, Jackson lmmunoResearch) or Goat-anti-human IgG (Cat#:109-005-097, Jackson ImmunoResearch, for the positive control and negative control) in PBS overnight at 4° C. Plates were washed once with wash buffer (PBST, PBS+0.05% Tween-20) and then blocked with 200 μl/well blocking buffer (5% w/v non-fatty milk in PBST) for 2 hours at 37° C. […] After a final wash, plates were incubated with 100 μl/well TMB (Cat#:TMB-S-002, Innoreagents) at room temperature.
The reaction was stopped 3-10 minutes later with 50 μl/well 1M H₂SO₄, and the absorbance was read on a microplate reader using dual wavelength mode with 450 nm for TMB and 630 nm as the reference wavelength. The OD (450-630) values were plotted against antibody concentrations. Data was analyzed using GraphPad Prism software and EC₅₀ values were reported.

[2] = biological target: T1, in house made human PD-1-Fc protein; test: competitive ELISA: antibody pre-mixed with biotin-labeled human PD-1-Fc, added to coated Pembrolizumab (competitor); unit from the axis 'Con of mAb, nM.'
Experimental: ELISA plates were washed once with wash buffer (PBST, PBS+0.05% Tween-20) and then blocked with 200 μl/well blocking buffer (5% w/v non-fatty milk in PBST) for 2 hours at 37° C. […] After incubation at 37° C. for 40 minutes, plates were washed using wash buffer, added and incubated with 100 μl/well Peroxidase Streptavidin for 40 minutes at 37° C. Plates were washed again using wash buffer. Finally, TMB was added and the reaction was stopped using 1M H₂SO₄. The absorbance was read on a microplate reader using dual wavelength mode with 450 nm for TMB and 630 nm as the reference wavelength, and the OD (450-630) values were plotted against antibody concentrations. Data was analyzed using Graphpad Prism software and IC₅₀ values were reported.

[3] = biological target: T1, in house made human PD-1-Fc protein; test: cell-based blocking FACS: antibody pre-mixed with biotin-labeled human PD-1-Fc, added to GS-C2/PD-L1 cells expressing human PD-L1 (blocked ligand); unit from the axis 'Con of mAb, nM.'
Experimental: GS-C2/PDL1 cells were harvested from cell culture flasks at the log phase, washed twice and re-suspended in PBS containing 2% v/v Fetal Bovine Serum (FACS buffer). GS-C2/PD-L1 cells, 0.6×10⁵ cells per welt, were incubated in 96 well-plates with 100 the antibody/PD1-Fc mixture for 40 minutes at 4° C. Cells were washed twice with FACS buffer, added with 100 R-Phycoerythrin Streptavidin (1:500 dilution in FACS buffer, Cat#:016-110-084, Jackson Immunoresearch), and incubated for 40 minutes at 4° C. in dark. Cells were washed twice and re-suspended in FACS buffer. Fluorescence was measured using a Becton Dickinson FACS Canto II-HTS equipment. Data was analyzed using Graphpad Prism software and IC₅₀ values were reported.

[4] = biological target: T2, cynomolgus PD-1-his protein (Cat#:PD1-05223, Acro biosystems Inc.) (cynomolgus, UniProt B0LAJ3 25-170); test: SPR (Biacore T200), antibody captured, PD-1-his in flow, 1:1 fit
T2 construct: Bought protein used in Biacore and indirect ELISA; also called monkey PD-1; Cyno PD-1
Text: (§1) The purified anti-PD-1 mouse monoclonal antibodies (mAbs) generated in Example 1 were characterized for binding affinities and binding kinetics by Biacore T200 system (GE healthcare, Pittsburgh, Pa., USA).
(§2) Briefly, Goat-Anti-Mouse IgG (Cat#: BR100838, GE healthcare, Mouse Antibody Capture Kit) was covalently linked to a CMS chip (carboxy methyl dextran coated chip, Cat#: BR100530, GE healthcare) via primary amines using a standard amine coupling kit (GE healthcare, Pittsburgh, Pa., USA) provided by Biacore. Un-reacted moieties on the biosensor surface were blocked with ethanolamine. A Protein G chip (Cat#:29-1793-15, GE healthcare) was used for the positive controls affinity determination. The anti-PD-1 antibodies of the disclosure and the two positive controls at the concentration of 2 μg/ml were respectively flowed onto the chip at a flow rate of 10 μl/min. Then, serially diluted recombinant human PD-1-his protein (Cat#:10377-H08H, Sino biological Inc.), cynomolgus PD-1-his protein (Cat#:PD1-05223, Acro biosystems Inc.) and recombinant mouse PD-1-his protein (Cat#:50124-M08H, Sino Biological Inc), 2-fold dilution in HBS-EP⁺ buffer (provided by Biacore) starting at 200 nM, were respecitvely flowed onto the chip at a flow rate of 30 μl/min. The antigen-antibody association kinetics was followed for 2 minutes and the dissociation kinetics was followed for 10 minutes. The association and dissociation curves were fit to a 1:1 Langmuir binding model using Biacore evaluation software.

[5] = biological target: T3, recombinant human PD-1-his protein (Cat#:10377-H08H, Sino biological Inc.) (human, UniProt Q15116 25-167); test: as above
T3 construct: Bought protein used as analyte in the Biacore tests; not shown: his tag
Text: as §1, §2

[6] = biological target: T4, human PD-1 expressed on GS-J2/PD-1 cells (Genscript) (human, UniProt Q15116 25-288); test: cell-based binding FACS on GS-J2/PD-1 cells expressing human PD-1 (MFI); unit from the axis 'Con of mAb, nM.'
T4 construct: whole, on cells; also called cell-surface human PD-1
Experimental: The mouse anti-PD-1 antibodies of the disclosure were also tested for their binding activities to human PD-1s expressed on cell surface by flow cytometry (FACS), using GS-J2/PD-1 cell line (Genscript) expressing cell-surface human PD-1s.
In specific, the 293F-mouse PD-1 cells and GS-J2/PD-1 cells were respectively harvested from cell culture flasks, washed twice and re-suspended in PBS containing 2% v/v Fetal Bovine Serum (FACS buffer). Then, 2×10⁵ cells per well were incubated in 96 well-plates with 100 μl of the anti-PD1 antibodies or controls at various concentrations for 40 minutes on ice. […] Following an incubation of 40 minutes at 4° C. in dark, cells were washed three times and re-suspended in FACS buffer. Fluorescence was measured using a Becton Dickinson FACS Canto II-HTS equipment and plotted against antibody concentrations. Data was analyzed using GraphPad Prism software and EC₅₀ values were reported.

EC50 [1]: 0.0379 nM
IC50 [2]: 0.0629 nM
IC50 [3]: 0.496 nM
Kd [4]: 0.125 nM
koff [4]: 4.32e-05 s⁻¹
kon [4]: 345000 M⁻¹ s⁻¹
Kd [5]: 0.236 nM
koff [5]: 8.56e-05 s⁻¹
kon [5]: 363000 M⁻¹ s⁻¹
EC50 [6]: 0.23 nM
B1: mouse anti-PD-1 monoclonal antibody E1G5D1H1 (antibody, V domains shown)
VH: EVQLVESGGGLVKPGGSLKLSCAASGFTFSDFYMYWVRQTPEKRLEWVATISNSGTQTYYLDSVKGRFTISRDNAKNNLYLQMSSLKSEDTAMYYCARDYYRYDSWYFDVWGAGTTVTVSS
VL: DIVLTQSPASLAVSQGQRATISCRASESVDFYGTSLMQWFQLKPGQPPKLLIYAASNVESGVPARFSGSGSGTNFSLNIHPVEEDDIAMYFCQQSRKVPWTFGGGTNLEIK
notes: Hybridoma-derived mouse mAb; also called EIG5D1H1; E1G5DIH1

EC50 [1]: 0.0554 nM
IC50 [2]: 0.0982 nM
IC50 [3]: 0.782 nM
Kd [4]: 1.13 nM
koff [4]: 0.000119 s⁻¹
kon [4]: 106000 M⁻¹ s⁻¹
Kd [5]: 1.1 nM
koff [5]: 0.00022 s⁻¹
kon [5]: 199000 M⁻¹ s⁻¹
EC50 [6]: 0.37 nM
B2: mouse anti-PD-1 monoclonal antibody E1A9C8A7 (antibody, V domains shown)
VH: QVQLQQSGAEVVRPGVSVRISCKGSGYTFSDYVMHWMKQSHGESLEWIGVISTYHIPAVYNQKFKGKATMTVDKSSSTVYLELARLTSEDSAIYYCAREVYGDSYYFDVWGAGTTVTVSS
VL: DVLMTQIPLSLPVSLGDQVSISCRSSQSIVHSNGNTYLEWYLQKPGQSPKLLIYKVSNRFSGVPDRFSGSGSGTDFTLKISRVEAEDLGVYYCFQGSHVPYTFGGGTKLEIK
notes: Hybridoma-derived mouse mAb purified on Protein A; also called Mouse E1A9C8A7

EC50 [1]: 0.0647 nM
IC50 [2]: 0.162 nM
IC50 [3]: 0.484 nM
Kd [4]: 1.16 nM
koff [4]: 0.000161 s⁻¹
kon [4]: 138000 M⁻¹ s⁻¹
Kd [5]: 0.906 nM
koff [5]: 0.00022 s⁻¹
kon [5]: 243000 M⁻¹ s⁻¹
EC50 [6]: 0.483 nM
B3: mouse anti-PD-1 monoclonal antibody E2G4E10B7 (antibody, V domains shown)
VH: QVQLQQSGAELVRPGVSVKISCKGSGYTFTDYVMHWVRQSHAKSLEWIGVISTHFGDGVYNQKFKGKATMTVDKSSSTAYMELARLTSEDSAIYYCAREVYGDSWYFDVWGAGTTVTVSS
VL: B2 VL with I7T, V19A, I29L, N33D, V83L
notes: Hybridoma-derived mouse mAb; also called Mouse E2G4E10B7
